From US20250092133A1 (Amgen, published 2025)
Substitutions are numbered along the chain they refer to.

T1: Hu CDH3 Dom1 mu (aa 108-215), human/mouse chimeric CDH3 on CHO cells (chimeric hu/mu)
T1 chain: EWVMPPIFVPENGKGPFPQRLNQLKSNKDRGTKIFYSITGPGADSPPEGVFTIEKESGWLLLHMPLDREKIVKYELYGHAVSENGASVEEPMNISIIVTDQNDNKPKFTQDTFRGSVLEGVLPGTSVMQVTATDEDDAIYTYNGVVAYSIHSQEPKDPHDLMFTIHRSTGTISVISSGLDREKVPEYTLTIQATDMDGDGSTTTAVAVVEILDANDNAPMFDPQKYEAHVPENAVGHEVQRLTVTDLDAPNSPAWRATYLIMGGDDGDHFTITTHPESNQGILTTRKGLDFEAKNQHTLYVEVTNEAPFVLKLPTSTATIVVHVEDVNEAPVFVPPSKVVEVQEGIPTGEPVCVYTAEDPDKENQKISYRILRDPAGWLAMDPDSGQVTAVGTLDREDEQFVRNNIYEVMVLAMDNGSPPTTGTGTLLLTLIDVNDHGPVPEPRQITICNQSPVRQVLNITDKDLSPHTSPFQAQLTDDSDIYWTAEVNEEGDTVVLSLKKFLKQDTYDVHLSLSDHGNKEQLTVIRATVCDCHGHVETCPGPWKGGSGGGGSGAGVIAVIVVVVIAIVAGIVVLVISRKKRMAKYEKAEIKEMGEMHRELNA

T2: Hu CDH3 Dom1B mu (aa 144-179), human/mouse chimeric CDH3 on CHO cells (chimeric hu/mu, UniProt P22223 108-681 (human entry))
T2 chain: T1 chain with E1D, M4V, P5A, F8S, G31D, Y77F, E90D, N104H

B1: CDH3-8 (scFv)
scFv: EVQLVEQSGAEVVKPGASVKITCKASGYAFSSYWMNWVRQRPGKGLEWIGHIYPGDGDTNYNGKFKGKVTLTADKSSNTAYMQLSDLTPEDSAVYFCARDRGSFGAWFAYWGQGTTVTVSSGGGGSGGGGSGGGGSELVMTQTPSSLSASLGDRVTISCRASQDISNYLNWYQQKPDGTVKLLIYYTSRLHSGVPSRFSGSGSGTDYSLTISNLEQEDIATYFCQQGNRNPPTFGGGTKLEIK
notes: Used as crude periplasmic extract and detected through a FLAG tag; also called CDH3-8 scFv
B2: CDH3-9 (scFv)
scFv: EVQLVEESGGDLVKPGGSLKLSCAASGFTFSTYGMSWVRQTPDKRLEWVATISSGGHYSYYPDSVKGRFTISRDNAKNTLYLQMSSLKSEDTAMYYCASYYYGSPFAYWGQGTTVTVSSGGGGSGGGGSGGGGSELQMTQSPSSLSASLGERVSLTCRASQDIGSSLNWLQQKPDGTIKRLIYDTSSLDSGVPKRFSGSRSGSDYSLTISSLESEDFGDYYCVQYGSSPLTFGAGTKLEIK
notes: Used as crude periplasmic extract and detected through a FLAG tag; also called CDH3-9 scFv
B3: CDH3-10 scFv (scFv)
scFv: EVQLVEESGGGLVKPGGSLKLSCAASGFTFSSYAMSWVRQTPDKRLEWVATISSGGHYTYYPDSVKGRFTISRDNAKNTLYLQMSSLKSEDTAMYYCASYYYGIPFGYWGQGTTVTVSSGGGGSGGGGSGGGGSELVMTQSPSSLSASLGEGVSLTCRASQDIGINLIWLRQEPDGTIKRLIYDTSSLDSGVPKRFSGSRSGSDYSLTISSLESEDFVHYYCLQYGSSPLTFGAGTKLEIK

Target: T1, Hu CDH3 Dom1 mu (aa 108-215), …
Assay: flow cytometry, transfected CHO cells; crude periplasmic scFv extract; anti-FLAG M2 + anti-mouse IgG Fcγ-PE
Procedure: (§1) Cells transfected with human or murine CDH3, or with the chimeric human/mouse CDH3 molecules (see Example 1) were stained with crude, undiluted periplasmic extract containing scFv binding to human/macaque CDH3. […] As negative control, cells were incubated with PBS/2% FCS instead of the periplasmic extract. The samples were measured by flow cytometry.

Binding result, no binding:
B1
B2
B3

Target: T2, Hu CDH3 Dom1B mu (aa 144-179), …
Assay: as above
Procedure: as §1

Binding result, no binding:
B1
B2
B3
